Reference: patent US20180369322A1 (published 2018)
Numbered stars: 1 amine (or outer) side, 2 acyl side, 3 side chain; on linkers, the order of the positions; unused ones are H or OH. Bridge positions count the residues as written; N and C are the ends. Square brackets hold non-standard residues; d marks the D form. Primed or numbered codes have the meaning given here. Side chains are listed from the residue outwards. * marks the point of attachment. PEG24′ = polyethylene glycol unit with 24 repeats; Trp(7-aza) = N[C@@H](Cc1c[nH]c2ncccc12)C(=O)O; γGlu = O=C(O)[C@H](CCC(=O)[*:2])N[*:1]; Palmitoyl = CCCCCCCCCCCCCCCC(=O)*; NMeD = CN[C@@H](CC(=O)O)C(=O)O; Chg = N[C@H](C(=O)O)C1CCCCC1; Tle = CC(C)(C)[C@H](N)C(=O)O

What was measured:
Experiment in all cases: cell-based or functional assay
[1] = target: cloned hERG potassium channel (human, UniProt Q12809 1-1159)
dog C5 = dog C5 (dog)
rabbit C5 = rabbit C5 (rabbit)
human C5 = human C5 (human, UniProt P01031 19-1676)
Chain of human C5 (P01031 19-1676 limits assumed): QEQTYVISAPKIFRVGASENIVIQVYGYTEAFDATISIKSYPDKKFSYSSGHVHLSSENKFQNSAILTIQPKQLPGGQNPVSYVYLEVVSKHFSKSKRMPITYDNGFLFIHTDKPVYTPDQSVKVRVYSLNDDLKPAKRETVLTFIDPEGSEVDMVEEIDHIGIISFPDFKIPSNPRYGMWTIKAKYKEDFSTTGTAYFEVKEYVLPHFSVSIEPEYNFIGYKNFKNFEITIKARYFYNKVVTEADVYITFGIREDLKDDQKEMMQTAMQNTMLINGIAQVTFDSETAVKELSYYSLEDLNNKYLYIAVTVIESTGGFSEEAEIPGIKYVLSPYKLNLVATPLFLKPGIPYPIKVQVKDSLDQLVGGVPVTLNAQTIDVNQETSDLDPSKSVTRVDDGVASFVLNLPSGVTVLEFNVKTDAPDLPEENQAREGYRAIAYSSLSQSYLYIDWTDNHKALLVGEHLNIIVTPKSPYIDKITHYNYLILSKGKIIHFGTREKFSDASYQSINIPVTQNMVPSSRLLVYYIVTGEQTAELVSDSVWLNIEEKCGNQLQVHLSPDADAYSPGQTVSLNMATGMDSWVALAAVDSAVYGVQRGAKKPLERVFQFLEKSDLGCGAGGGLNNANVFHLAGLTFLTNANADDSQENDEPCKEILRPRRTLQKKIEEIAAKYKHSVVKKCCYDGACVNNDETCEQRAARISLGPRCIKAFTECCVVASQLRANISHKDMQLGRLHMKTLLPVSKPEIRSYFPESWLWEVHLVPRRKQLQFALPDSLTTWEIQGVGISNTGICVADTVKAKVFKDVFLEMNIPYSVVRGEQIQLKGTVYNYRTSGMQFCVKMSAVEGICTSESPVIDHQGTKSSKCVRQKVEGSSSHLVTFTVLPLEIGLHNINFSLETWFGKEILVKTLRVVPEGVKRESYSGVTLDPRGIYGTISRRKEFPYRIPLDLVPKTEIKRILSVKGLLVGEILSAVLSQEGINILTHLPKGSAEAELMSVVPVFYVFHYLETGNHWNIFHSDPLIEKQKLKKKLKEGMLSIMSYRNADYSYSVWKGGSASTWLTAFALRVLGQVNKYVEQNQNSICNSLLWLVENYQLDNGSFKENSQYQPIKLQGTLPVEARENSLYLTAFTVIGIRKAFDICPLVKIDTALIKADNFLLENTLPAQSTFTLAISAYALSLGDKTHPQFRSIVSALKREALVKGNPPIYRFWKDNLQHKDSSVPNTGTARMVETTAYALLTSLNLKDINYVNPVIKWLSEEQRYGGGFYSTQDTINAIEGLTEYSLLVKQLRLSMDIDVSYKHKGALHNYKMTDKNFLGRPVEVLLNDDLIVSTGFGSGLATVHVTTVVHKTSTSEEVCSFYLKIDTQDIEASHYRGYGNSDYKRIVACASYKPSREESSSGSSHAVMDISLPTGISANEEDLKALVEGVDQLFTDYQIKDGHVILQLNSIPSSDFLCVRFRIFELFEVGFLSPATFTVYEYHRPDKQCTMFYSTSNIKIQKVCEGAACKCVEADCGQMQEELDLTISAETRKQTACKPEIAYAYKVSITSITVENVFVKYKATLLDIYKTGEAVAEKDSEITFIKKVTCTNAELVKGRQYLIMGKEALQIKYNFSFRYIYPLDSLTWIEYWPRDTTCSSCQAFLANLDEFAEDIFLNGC

Chain of dog C5 (dog) (P01031 whole entry): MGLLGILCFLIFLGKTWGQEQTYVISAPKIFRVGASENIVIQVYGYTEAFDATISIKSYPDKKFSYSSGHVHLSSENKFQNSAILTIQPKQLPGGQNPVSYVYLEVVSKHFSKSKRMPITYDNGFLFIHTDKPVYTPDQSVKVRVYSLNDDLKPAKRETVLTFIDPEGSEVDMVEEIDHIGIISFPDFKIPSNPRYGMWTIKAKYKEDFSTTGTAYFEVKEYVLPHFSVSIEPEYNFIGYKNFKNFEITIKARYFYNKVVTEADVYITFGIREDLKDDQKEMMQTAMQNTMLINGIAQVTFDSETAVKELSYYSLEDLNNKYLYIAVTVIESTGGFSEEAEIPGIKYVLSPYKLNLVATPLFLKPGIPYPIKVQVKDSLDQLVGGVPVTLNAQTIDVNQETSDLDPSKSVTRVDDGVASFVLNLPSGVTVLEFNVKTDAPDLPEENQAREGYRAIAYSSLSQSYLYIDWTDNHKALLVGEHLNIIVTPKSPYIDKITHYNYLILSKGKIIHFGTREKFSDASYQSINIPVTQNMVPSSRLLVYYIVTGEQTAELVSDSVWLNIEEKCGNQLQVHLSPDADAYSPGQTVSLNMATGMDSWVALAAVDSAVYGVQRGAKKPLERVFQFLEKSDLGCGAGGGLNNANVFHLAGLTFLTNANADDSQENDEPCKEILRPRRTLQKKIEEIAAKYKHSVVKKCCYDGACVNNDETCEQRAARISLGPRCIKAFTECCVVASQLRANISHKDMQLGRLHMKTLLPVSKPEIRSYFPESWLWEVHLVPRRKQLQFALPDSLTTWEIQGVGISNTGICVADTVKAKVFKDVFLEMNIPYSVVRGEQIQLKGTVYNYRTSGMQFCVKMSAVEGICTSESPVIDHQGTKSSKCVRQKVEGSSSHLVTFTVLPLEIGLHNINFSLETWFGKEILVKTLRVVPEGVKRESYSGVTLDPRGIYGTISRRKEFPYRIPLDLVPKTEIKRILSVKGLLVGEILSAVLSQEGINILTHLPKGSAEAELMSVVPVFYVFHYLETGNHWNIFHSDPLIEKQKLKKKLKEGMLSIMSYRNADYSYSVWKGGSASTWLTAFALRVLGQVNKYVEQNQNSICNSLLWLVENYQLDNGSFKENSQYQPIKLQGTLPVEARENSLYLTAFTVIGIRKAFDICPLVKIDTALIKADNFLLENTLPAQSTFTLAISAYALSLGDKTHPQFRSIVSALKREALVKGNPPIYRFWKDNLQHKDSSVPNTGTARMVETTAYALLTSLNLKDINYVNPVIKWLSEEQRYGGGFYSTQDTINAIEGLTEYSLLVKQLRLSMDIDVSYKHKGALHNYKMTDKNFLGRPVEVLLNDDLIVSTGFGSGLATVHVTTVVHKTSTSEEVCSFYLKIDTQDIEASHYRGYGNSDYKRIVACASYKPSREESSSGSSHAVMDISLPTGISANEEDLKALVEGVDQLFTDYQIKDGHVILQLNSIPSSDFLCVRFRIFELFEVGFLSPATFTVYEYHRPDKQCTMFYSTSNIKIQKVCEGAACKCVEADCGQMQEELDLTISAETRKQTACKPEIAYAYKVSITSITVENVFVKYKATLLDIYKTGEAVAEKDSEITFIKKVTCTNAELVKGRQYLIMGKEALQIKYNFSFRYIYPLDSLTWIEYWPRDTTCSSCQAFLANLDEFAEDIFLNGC
Chain of rabbit C5 (rabbit) (P01031 whole entry): as above
Chain of cloned hERG potassium channel (Q12809 whole entry): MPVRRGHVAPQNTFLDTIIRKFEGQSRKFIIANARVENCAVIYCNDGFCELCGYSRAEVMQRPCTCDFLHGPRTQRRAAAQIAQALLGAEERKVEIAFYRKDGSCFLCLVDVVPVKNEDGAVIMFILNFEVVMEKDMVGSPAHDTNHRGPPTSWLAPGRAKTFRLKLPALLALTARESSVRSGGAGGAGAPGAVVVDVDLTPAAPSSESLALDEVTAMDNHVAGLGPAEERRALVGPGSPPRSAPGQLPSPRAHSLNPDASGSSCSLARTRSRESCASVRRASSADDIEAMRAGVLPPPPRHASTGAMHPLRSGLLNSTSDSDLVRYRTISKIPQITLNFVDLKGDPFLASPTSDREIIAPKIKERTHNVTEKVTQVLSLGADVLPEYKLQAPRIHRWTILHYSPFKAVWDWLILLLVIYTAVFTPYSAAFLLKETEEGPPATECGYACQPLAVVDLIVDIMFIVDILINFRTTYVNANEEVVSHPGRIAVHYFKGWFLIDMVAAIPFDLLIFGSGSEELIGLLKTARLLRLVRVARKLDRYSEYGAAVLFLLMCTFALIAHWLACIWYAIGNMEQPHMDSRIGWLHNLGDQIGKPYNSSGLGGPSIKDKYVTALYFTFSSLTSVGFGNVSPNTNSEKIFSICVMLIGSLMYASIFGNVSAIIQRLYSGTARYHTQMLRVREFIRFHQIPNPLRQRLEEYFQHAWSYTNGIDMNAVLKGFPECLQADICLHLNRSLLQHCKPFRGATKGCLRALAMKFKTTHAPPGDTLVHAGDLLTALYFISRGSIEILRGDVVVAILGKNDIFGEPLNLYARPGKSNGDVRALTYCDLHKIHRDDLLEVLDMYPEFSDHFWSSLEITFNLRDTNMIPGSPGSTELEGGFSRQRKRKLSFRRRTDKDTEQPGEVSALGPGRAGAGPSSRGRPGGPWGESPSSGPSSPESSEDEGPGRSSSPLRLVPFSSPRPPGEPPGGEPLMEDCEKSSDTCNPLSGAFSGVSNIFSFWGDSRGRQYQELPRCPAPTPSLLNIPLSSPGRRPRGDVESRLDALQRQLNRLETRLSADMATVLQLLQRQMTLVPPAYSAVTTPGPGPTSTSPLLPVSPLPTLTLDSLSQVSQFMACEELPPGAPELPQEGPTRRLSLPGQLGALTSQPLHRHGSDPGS

Ac-KVERFD[NMeD][Tle]Y[Trp(7-aza)]EYP[Chg]K([PEG24′-γGlu-Palmitoyl])-OH (lactam 1-6) [R5000]
IC50 of inhibition of hERG potassium channel current (parallel patch-clamp, HEK293 cells) [1]: > 300 µM | IC50 of inhibition of red blood cell hemolysis, dog serum/plasma (dog C5): > 4.7 µM | IC50 of inhibition of red blood cell hemolysis, rabbit serum/plasma (rabbit C5): > 67 µM | IC50 of inhibition of red blood cell hemolysis, human serum/plasma (human C5): 0.0066 µM
